The data set concerns the molecule itself. The data set can be described thus: crystal structure; hanging-drop vapor diffusion; ammonium sulfate (50-80% saturated), NaCl 0.1 M, Tris HCl 20 mM pH 7.2; BFR D132F with <1 heme/24-mer; 12 monomers in the asymmetric unit; 2.0 Å.

B1: E. coli bacterioferritin D132F variant (natural protein)
chain: not shown
notes: Bacterioferritin (BFR), E. coli, bfr gene in pET21a (pALN1) with D132F made by QuikChange; the model holds '12 complete monomers' in the asymmetric unit (1896 C-alpha atoms for the 12-mer, i.e. 158 per chain); Crystallised with <1 heme/24-mer, free of metal ions (apo); no tag is mentioned; also called BFR D132F; apo-D132F variant; copies: 24
Regarding B1, the binding result is on record as “binds”.

The values are drawn from article PMC4319037, “The B-type Channel Is a Major Route for Iron Entry into the Ferroxidase Center and Central Cavity of Bacterioferritin*” (The Journal of Biological Chemistry, 2014).
